The supplement of paper PMC10567573

B1: ZER1 (parent)
chain: PILRLLPQGISPVSQHWATWALYN
B2: POMT2 (parent)
chain: YHEAPMTRKHYQVTGYGINGTGDS

Variants of: B1
Experiment: protein stability index of a GFP-peptide fusion (GPS, HEK-293T) (PSI 1-6); higher = more stable
Details: c terminus: a fixed tail appended
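Also: lentivirally expressed fusions sorted by FACS into six bins by GFP to DsRed ratio, PSI derived from sequencing read proportions per bin multiplied by bin number.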

Variant | protein stability index
PILRLLPQGISPVSQHWATWALRN [Y23R] | 1.17
PILRLLPQGISPVSQHWATWALDN [Y23D] | 2
PILRLLPQGISPVSQHWATWALNN [Y23N] | 2.92
PILRLLPQGISPVSQHWATWALEN [Y23E] | 1.8
PILRLLPQGISPVSQHWATWALHN [Y23H] | 3.01
PILRLLPQGISPVSQHWATWALVN [Y23V] | 3.73
PILRLLPQGISPVSQHWATWALIN [Y23I] | 3.22
PILRLLPQGISPVSQHWATWALKN [Y23K] | 1.92
PILRLLPQGISPVSQHWATWALSN [Y23S] | 1.66
PILRLLPQGISPVSQHHATWALYN [W17H] | 1.57
PILRLLPQGISPVSQHSATWALYN [W17S] | 2.51
PILRLLPQGISPVSQHVATWALYN [W17V] | 2.59
PILRLLPQGISPVSQHTATWALYN [W17T] | 1.73
PILRLLPQGISPVSQHFATWALYN [W17F] | 3.63
PILRLLPQGISPVSQHAATWALYN [W17A] | 1.72
PILRLLPQGISPVSQHQATWALYN [W17Q] | 3.2
PILRLLPQGISPVSQHCATWALYN [W17C] | 2.27
PILRLLPQGISPVSQHKATWALYN [W17K] | 2.16

Variant | protein stability index
PILRLLPQGISPVSQHRATWALYN [W17R] | 3.1
PILRLLPQGISPVSQHGATWALYN [W17G] | 1.93
PILRLLPQGISPVSQHPATWALYN [W17P] | 1.4
PILRLLPQGISPVSQHYATWALYN [W17Y] | 2.15
PILRLLPQGISPVSQHMATWALYN [W17M] | 3.18
PILRLLPQGISPVSQHNATWALYN [W17N] | 1.83
PILRLLPQGISPVSQHIATWALYN [W17I] | 3.9
PILRLLPQGISPVSQHEATWALYN [W17E] | 2.35
PILRLLPQGISPVSQHLATWALYN [W17L] | 4.01
PILRLLPQGISPVSQHDATWALYN [W17D] | 1.79
PILRLLPQGISPVSQKWATWALYN [H16K] | 1.94
PILRLLPQGISPVSQPWATWALYN [H16P] | 1.45
PILRLLPQGISPVSQDWATWALYN [H16D] | 2.11
PILRLLPQGISPVSQEWATWALYN [H16E] | 1.34
PILRLLPQGISPVSQRWATWALYN [H16R] | 3.32
PILRLLPQGISPVSQIWATWALYN [H16I] | 3.38
PILRLLPQGISPVSQNWATWALYN [H16N] | 2.34

Variants of: B2
Experiment: as above
Details: c terminus: a fixed tail appended

Variant | protein stability index
YYEAPMTRKHYQVTGYGINGTGDS [H2Y] | 2.75
YIEAPMTRKHYQVTGYGINGTGDS [H2I] | 2.21
YLEAPMTRKHYQVTGYGINGTGDS [H2L] | 3.07
YGEAPMTRKHYQVTGYGINGTGDS [H2G] | 2.92
YMEAPMTRKHYQVTGYGINGTGDS [H2M] | 3.09
YNEAPMTRKHYQVTGYGINGTGDS [H2N] | 3.5
YEEAPMTRKHYQVTGYGINGTGDS [H2E] | 3.95
YCEAPMTRKHYQVTGYGINGTGDS [H2C] | 1.97
YDEAPMTRKHYQVTGYGINGTGDS [H2D] | 3.98
YTEAPMTRKHYQVTGYGINGTGDS [H2T] | 2.58
YQEAPMTRKHYQVTGYGINGTGDS [H2Q] | 3.33
YWEAPMTRKHYQVTGYGINGTGDS [H2W] | 2.72
YSEAPMTRKHYQVTGYGINGTGDS [H2S] | 3.39
YREAPMTRKHYQVTGYGINGTGDS [H2R] | 3.81
YAEAPMTRKHYQVTGYGINGTGDS [H2A] | 2.56
YVEAPMTRKHYQVTGYGINGTGDS [H2V] | 1.89
YPEAPMTRKHYQVTGYGINGTGDS [H2P] | 2.99
YFEAPMTRKHYQVTGYGINGTGDS [H2F] | 3.38
YKEAPMTRKHYQVTGYGINGTGDS [H2K] | 3.57
NHEAPMTRKHYQVTGYGINGTGDS [Y1N] | 3.5

Variant | protein stability index
EHEAPMTRKHYQVTGYGINGTGDS [Y1E] | 4.3
THEAPMTRKHYQVTGYGINGTGDS [Y1T] | 3.91
QHEAPMTRKHYQVTGYGINGTGDS [Y1Q] | 3.9
AHEAPMTRKHYQVTGYGINGTGDS [Y1A] | 3.68
FHEAPMTRKHYQVTGYGINGTGDS [Y1F] | 1.89
CHEAPMTRKHYQVTGYGINGTGDS [Y1C] | 3.05
GHEAPMTRKHYQVTGYGINGTGDS [Y1G] | 3.53
PHEAPMTRKHYQVTGYGINGTGDS [Y1P] | 4.07
WHEAPMTRKHYQVTGYGINGTGDS [Y1W] | 3.72
RHEAPMTRKHYQVTGYGINGTGDS [Y1R] | 3.51
MHEAPMTRKHYQVTGYGINGTGDS [Y1M] | 3.71
KHEAPMTRKHYQVTGYGINGTGDS [Y1K] | 3.97
VHEAPMTRKHYQVTGYGINGTGDS [Y1V] | 3.49
SHEAPMTRKHYQVTGYGINGTGDS [Y1S] | 3.68
HHEAPMTRKHYQVTGYGINGTGDS [Y1H] | 3.58
IHEAPMTRKHYQVTGYGINGTGDS [Y1I] | 4.03
LHEAPMTRKHYQVTGYGINGTGDS [Y1L] | 3.47
DHEAPMTRKHYQVTGYGINGTGDS [Y1D] | 3.94
YHWAPMTRKHYQVTGYGINGTGDS [E3W] | 1.44
YHQAPMTRKHYQVTGYGINGTGDS [E3Q] | 1.34

Variant | protein stability index
YHHAPMTRKHYQVTGYGINGTGDS [E3H] | 1.77
YHNAPMTRKHYQVTGYGINGTGDS [E3N] | 2.38
YHVAPMTRKHYQVTGYGINGTGDS [E3V] | 2.22
YHCAPMTRKHYQVTGYGINGTGDS [E3C] | 2
YHKAPMTRKHYQVTGYGINGTGDS [E3K] | 1.9
YHSAPMTRKHYQVTGYGINGTGDS [E3S] | 1.6
YHDAPMTRKHYQVTGYGINGTGDS [E3D] | 2.15
YHMAPMTRKHYQVTGYGINGTGDS [E3M] | 1.67
YHGAPMTRKHYQVTGYGINGTGDS [E3G] | 2.75
YHTAPMTRKHYQVTGYGINGTGDS [E3T] | 2.32
YHYAPMTRKHYQVTGYGINGTGDS [E3Y] | 1.77
YHFAPMTRKHYQVTGYGINGTGDS [E3F] | 1.52
YHRAPMTRKHYQVTGYGINGTGDS [E3R] | 1.47
YHPAPMTRKHYQVTGYGINGTGDS [E3P] | 2.87
YHIAPMTRKHYQVTGYGINGTGDS [E3I] | 1.73
YHAAPMTRKHYQVTGYGINGTGDS [E3A] | 2.46
YHLAPMTRKHYQVTGYGINGTGDS [E3L] | 1.61
YHEDPMTRKHYQVTGYGINGTGDS [A4D] | 2.95
YHECPMTRKHYQVTGYGINGTGDS [A4C] | 2.5
